According to paper doi:10.1101/2024.03.15.585150 (bioRxiv, 2024):
Read-outs that look alike come from different tables or passages of the source. No end group written: not given here. *: point of attachment. Biotin = O=C1N[C@H]2[C@H](CS[C@H]2CCCCC(=O)*)N1

How the values were obtained:
[1] = target: T1, KIX domain of CBP coactivator (KIX region 586-672) (UniProt P45481 586-672); test: BLI
[2] = target: T1, KIX domain of CBP coactivator (KIX …); test: BLI; remark: listed apart in the source

Binder | Kd [1] [nM] | Kd [2] [µM]
Biotin-GSSSTQLEMVTELLG [c-Myc peptide (c-Myc 9aaTAD), Biotin-GSSS-TQLEMVTELLG] | 2160 ± 1170 | –
Biotin-GSNILPSDIMDFVLKNT [MLL peptide (MLL 9aaTAD), Biotin-GS-NILPSDIMDFVLKNT] | 1170 ± 210 | –
Biotin-GSSSEPPSWVTEMLLEN [N-Myc peptide (N-Myc 9aaTAD), Biotin-GSSS-EPPSWVTEMLLEN] | 880 ± 110 | –
Biotin-GSSGDVSWDTLDLDDLD [Sp1-Ac peptide (acidic form of Sp1 9aaTAD), Biotin-GSS-GDVSWDTLDLDDLD] | – | 9.77 ± 1.57
